The target of assay [1] is T1, DR2b (DRB1*15:01) (Homo sapiens, UniProt P01903+P01911).
T1 construct: Soluble DRB1*15:01 and DRB5*01:01 with a covalently linked CLIP peptides; covalently linked CLIP peptide (3C-protease-cleavable linker) (cleaved yes); purchased NIH Tetramer Core Facility / Emory University (a gift of Drs. John Altman and Richard Willis, not bought)
Briefly: fluorescence polarization competition binding assay, DR2b. The conditions noted are these: mean of two independent experiments. For orientation: In fluorescence polarisation assays a small probe gives low polarisation when free and higher when bound to something large.

Assay [2] has as its target DR2a (DRB5*01:01) (Homo sapiens, UniProt P01903+Q30154). Put plainly: fluorescence polarization competition binding assay, DR2a.
Assay [3] relates to A549 cells. The settings on record: cells treated with IFN-γ and trametinib (IFN-γ 100 ng/mL; trametinib 50 ng/mL, 50 nM).
Assay [4] addresses Soluble DP4 (HLA-DPA1*01:03/DPB1*04:01) (human). Briefly: fluorescence polarisation.
For assay [5] the target is unchanged.
Assay [6] addresses Soluble DRB1*15:01 (human) (UniProt P01903). Put plainly: fluorescence polarisation.
In assay [7] the target is Soluble DRB5*01:01 (human) (UniProt P01903). Briefly: fluorescence polarisation.
For assay [8], the target named is Soluble DRB1*15:01 (human) (UniProt P01903).
Where [9] appears, read: fluorescence polarization competition, […], mean of two independent experiments, read-out: Mean IC50, DR2a (DRB5*01:01).

Where “and” joins values, the source holds several entries; their conditions need not be identical. Equal values may be shown once. Read-outs that look alike come from different tables or passages of the source. No end group written: not given here. Bounds are passed on as bounds.

As usually defined, the IC50 is the concentration at which inhibition is half-maximal. For the compound `CC[C@H](C)[C@H](NC(=O)[C@@H](NC(=O)[C@H](CC(N)=O)NC(=O)[C@H](CO)NC(=O)[C@H](CCCCN)NC(=O)[C@H](CCC(=O)O)NC(=O)[C@@H](NC(=O)[C@H](CO)NC(=O)[C@H](C)NC(=O)[C@H](Cc1ccccc1)NC(=O)[C@H](Cc1ccc(O)cc1)NC(=O)[C@@H](NC(=O)CNC(=O)[C@H](CC(=O)O)NC(=O)[C@H](CC(N)=O)NC(=O)[C@@H](N)Cc1ccccc1)C(C)C)[C@@H](C)O)[C@@H](C)CC)C(=O)O` [S#18 (CoV2)], the values for the half-maximal inhibitory concentration (IC50) in assay [1] and in assay [2] (setting [9]) were 777 µM and 41.3 µM, respectively.

On to `CC[C@H](C)[C@H](NC(=O)[C@@H](NC(=O)CNC(=O)[C@H](CC(N)=O)NC(=O)[C@H](CCC(=O)O)NC(=O)[C@H](CC(N)=O)NC(=O)[C@H](Cc1ccc(O)cc1)NC(=O)[C@H](CCCCN)NC(=O)[C@H](CC(C)C)NC(=O)[C@H](CC(C)C)NC(=O)[C@H](Cc1ccccc1)NC(=O)[C@@H](NC(=O)[C@H](CCCNC(=N)N)NC(=O)[C@@H]1CCCN1C(=O)[C@@H](N)CCC(N)=O)[C@@H](C)O)[C@@H](C)O)C(=O)N[C@H](C(=O)O)[C@@H](C)O` [S#55 (CoV2)], for which the IC50 in assay [1] is 3.7 µM; in assay [2] (setting [9]), 66.2 µM.

In the case of `CC[C@H](C)[C@H](NC(=O)[C@@H](NC(=O)CNC(=O)[C@H](CC(N)=O)NC(=O)[C@H](CCC(=O)O)NC(=O)[C@H](CC(N)=O)NC(=O)[C@H](Cc1ccc(O)cc1)NC(=O)[C@H](CCCCN)NC(=O)[C@H](CC(C)C)NC(=O)[C@@H](N)CC(C)C)[C@@H](C)O)C(=O)N[C@H](C(=O)N[C@@H](CC(=O)O)C(=O)N[C@@H](C)C(=O)N[C@H](C(=O)N[C@@H](CC(=O)O)C(=O)N[C@@H](CS)C(=O)O)C(C)C)[C@@H](C)O` [S#56 (CoV2)], the 50% inhibitory concentration (IC50) in assay [1] was 39.8 µM; in assay [2] (setting [9]), 41.1 µM.

As for `CC(=O)Nc1cccc(-n2c(=O)n(C3CC3)c(=O)c3c(Nc4ccc(I)cc4F)n(C)c(=O)c(C)c32)c1` [trametinib], in assay [3], the “MHC-II expression in A549 cells” value is recorded as “small increase”.

EGQQIIFYEGVNFTP [Peptide P8]: the IC50 in assay [1] amounted to 0.23 µM; in assay [2] it was 5.68 µM.

For LFYTQVYKNMAVYRS [Peptide P9], the IC50 in assay [1] is 0.22 µM; in assay [2] it was < 1 µM and 0.4 µM.

As to “P1, OC43 hemagglutinin esterase 259–273 (peptide)”, the IC50 in assay [4] is under 1 µM.

“P2, OC43 nucleoprotein 321–336 (peptide)” displayed an IC50 in assay [5] of over 10 µM.

With P3, OC43 spike 97–111 (peptide), the IC50 in assay [5] was under 10 µM.

P4, OC43 spike 903–917 (peptide) gave an IC50 in assay [5] of under 10 µM.

For the compound P5, OC43 spike 760–773 (peptide), the IC50 in assay [5] is under 1 µM.

Compound P6, OC43 spike 1140–1155 (peptide) gave an IC50 in assay [5] of over 10 µM.

P7, OC43 spike 1147–1164 (peptide) showed an IC50 in assay [5] of under 10 µM.

“P8, OC43 hemagglutinin esterase 93–107 (peptide)” returned an IC50 in assay [6] of under 1 µM.

As to “P9, OC43 hemagglutinin esterase 128–142 (peptide)”, the IC50 in assay [6] and in assay [7] was under 1 µM throughout.

Turning to P10, OC43 nucleoprotein 54–68 (peptide), the IC50 in assay [8] was under 1 µM.

The compound P11, OC43 spike 1085–1099 (peptide) displayed an IC50 in assay [8] of under 1 µM.

P12, OC43 spike 98–114 (peptide): the IC50 in assay [7] is under 1 µM; in assay [8] it was over 1 µM.

As to P14, OC43 envelope 62–78 (peptide), the IC50 in assay [5] is under 10 µM.

As for QGLPNNTASWFTALTQH [N#7 (CoV2)], the IC50 in assay [1] is 507 µM; in assay [2] (setting [9]), 204 µM.

The values are drawn from PMC10409285 (PLOS Pathogens, 2023).
